# Biological target: STAT3 (UniProt P42227)
# Test: anti-FLAG co-IP, anti-HA blot
# Conditions: reference: wild type SMAD2-FLAG; sites S255
substance,measurement,value
SMAD2 (from UniProt Q15796) S255A,binding against the reference,weaker

# From paper PMC12234153
